{"source": "patent US6730779B2", "about": "“Antibody that specifically binds an Mch4 polypeptide” (IDUN Pharmaceuticals, Inc., priority 1996, dated 2004)", "molecules": {"B1": {"name": "proMch4: full length proMch4 (SEQ ID NO:2) expressed in Sf9 cells by recombinant baculovirus (protein)", "chain": "MKSQGQHWYSSSDKNCKVSFREKLLIIDSNLGVQDVENLKFLCIGLVPNKKLEKSSSASDVFEHLLAEDLLSEEDPFFLAELLYIIRQKKLLQHLNCTKEEVERLLPTRQRVSLFRNLLYELSEGIDSENLKDMIFLLKDSLPKTEMTSLSFLAFLEKQGKIDEDNLTCLEDLCKTVVPKLLRNIEKYKREKAIQIVTPPVDKEAESYQGEEELVSQTDVKTFLEALPRAAVYRMNRNHRGLCVIVNNHSFTSLKDRQGTHKDAEILSHVFQWLGFTVHIHNNVTKVEMEMVLQKQKCNPAHADGDCFVFCILTHGRFGAVYSSDEALIPIREIMSHFTALQCPRLAEKPKLFFIQACQGEEIQPSVSIEADALNPEQAPTSLQDSIPAEADFLLGLATVPGYVSFRHVEEGSWYIQSLCNHLKKLVPRHEDILSILTAVNDDVSRRVDKQGTKKQMPQPAFTLRKKLVFPVPLDALSI"}}, "key": {"[1]": {"target": "T1, Mch4 (Homo sapiens, UniProt Q92851)", "T1 sequence (Q92851 194-372 isoform Q92851-2)": "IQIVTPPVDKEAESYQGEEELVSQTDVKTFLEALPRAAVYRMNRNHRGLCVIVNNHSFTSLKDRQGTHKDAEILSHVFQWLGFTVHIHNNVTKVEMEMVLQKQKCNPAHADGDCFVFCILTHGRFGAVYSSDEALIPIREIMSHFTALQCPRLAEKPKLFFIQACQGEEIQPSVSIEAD", "T1 sequence (Q92851 373-479 isoform Q92851-2)": "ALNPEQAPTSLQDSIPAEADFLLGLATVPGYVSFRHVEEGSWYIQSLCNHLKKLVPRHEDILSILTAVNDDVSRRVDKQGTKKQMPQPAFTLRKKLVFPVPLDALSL", "experiment": "Continuous fluorometric assay of recombinant Mch4 protease activity (kinetic parameters)", "settings": "for Km: tetrapeptide substrate, bacterially expressed GST-Mch4, ICE buffer pH 7.5, room temperature", "description": "The kinetic properties of bacterially expressed recombinant Mch4 were determined using the tetrapeptide substrates DEVD-AMC and YVAD-AMC in a continuous fluorometric assay (Table I). […] After induction with IPTG, bacterial extracts were prepared from E. coli expressing the recombinant fusion proteins. The extracts were adsorbed to glutathione-Sepharose resin, washed several times and then analyzed by SDS-PAGE.\nThe purified Mch4 GST-fusion protein was then used for further enzymatic analyses. The activity of Mch4 was measured using bacterial lysates prepared with ICE buffer (25 mM HEPES, 1 mM EDTA, 5 mM DTT, 0.1% CHAPS, 10% sucrose, pH 7.5) at room temperature (24-25° C.)."}, "[2]": {"target": "T2, CPP32 (Homo sapiens, UniProt P42574)", "T2 sequence (P42574 29-175 limits assumed)": "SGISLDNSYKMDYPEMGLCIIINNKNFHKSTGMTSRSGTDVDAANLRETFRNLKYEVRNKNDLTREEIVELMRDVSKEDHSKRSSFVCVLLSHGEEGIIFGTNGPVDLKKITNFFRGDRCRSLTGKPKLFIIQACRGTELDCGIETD", "T2 sequence (P42574 176-277 limits assumed)": "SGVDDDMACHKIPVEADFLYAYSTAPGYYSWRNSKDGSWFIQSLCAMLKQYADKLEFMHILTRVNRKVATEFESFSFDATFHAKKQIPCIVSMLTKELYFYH", "settings": "cited from earlier work"}, "[3]": {"tested_on": "MCF7 human breast carcinoma cell line", "experiment": "Apoptosis of MCF7 cells after transfection with Mch5B expression vector", "settings": "36 hours after transfection, control plasmid pcDNA3 about 50%"}, "[4]": {"target": "T2, CPP32", "experiment": "Kinetic comparison of CPP32 with tetrapeptide substrates", "settings": "CPP32 versus Mch4"}, "[5]": {"tested_on": "Sf9 cells", "experiment": "Induction of apoptosis in Sf9 cells by recombinant baculovirus expression", "type": "cell-based", "settings": "about 48 h postinfection", "text": "Briefly, Sf9 cells were infected with recombinant baculoviruses encoding full length proMch4 or full length CPP32 as a standard (Fernandes-Alnemri et al., J. Biol. Chem. 269:30761-30764 (1994)). Cells were then examined microscopically for morphological signs of apoptosis such as blebbing of the cytoplasmic membrane, condensation of nuclear chromatin and release of small apoptotic bodies. In addition the genomic DNA was examined for internucleosomal DNA cleavage.\nFor the construction of transfer vectors and recombinant baculoviruses, the full length proMch4 in pBluescript KS+ was excised with Bam HI and EcoRI and subcloned into a Bam HI/EcoRI cut pVL1393 vector (Invitrogen, San Diego, Calif.) to generate the pVL-proMch4 transfer vector. The pVL-CPP32 transfer vector was made as described previously (Fernandes-Alnemri et al., supra (1994)). […]\nFor-the induction of apoptosis in Sf9 cells by proMch4 and CPP32 cells were infected with recombinant baculoviruses AcNPV-proMch4 or AcNPV-CPP32. Apoptosis was measured microscopically by counting cells with the appropriate morphology (blebbing, nuclear condensation). Alternatively, internucleosomal DNA cleavage is assessed as a characteristic marker. […] The DNA samples were analyzed by electrophoresis in a 1.8% agarose gel containing ethidium bromide."}}}
{"molecule": "CC(=O)N[C@@H](CC(=O)O)C(=O)N[C@@H](CCC(=O)O)C(=O)N[C@H](C(=O)N[C@H](C=O)CC(=O)O)C(C)C", "note": "[DEVD-CHO]", "values": [{"measurement": "Ki", "setting": "[1]", "result": 14, "unit": "nM"}]}
{"molecule": "YVAD-AMC: tetrapeptide substrate representing the IL-1β cleavage site", "values": [{"measurement": "Km", "setting": "[1]", "result": 150, "unit": "µM"}, {"measurement": "KM for YVAD-AMC relative to KM for DEVD-AMC", "setting": "[2]", "result": "> 35", "unit": "fold"}]}
{"molecule": "Mch5B: FADD-like domain B of proMch5 (amino acid 128-205), expressed from pcDNA3 vector in MCF7 cells", "values": [{"measurement": "percentage of transfected cells that were apoptotic", "setting": "[3]", "result": "about 80%"}]}
{"molecule": "DEVD-AMC: fluorescent tetrapeptide substrate representing the PARP cleavage site", "values": [{"measurement": "Km", "setting": "[1]", "result": 130, "unit": "µM"}, {"measurement": "specificity of CPP32 for the substrate compared to Mch4 (ratio of Vmax/Km)", "setting": "[4]", "result": "> 500", "unit": "fold"}]}
{"molecule": "B1", "values": [{"measurement": "induction of apoptosis (morphology, internucleosomal DNA cleavage)", "setting": "[5]", "result": "caused a significant percentage of the cells to undergo apoptosis"}]}
